Drawing on patent US20150368327A1 (YOKOHAMA CITY UNIVERSITY, published 2015), this text covers IC50 for one molecule.

In the experiment the target is T1, human Sema 3A protein (human, UniProt Q14563 21-771, limits assumed).
T1 construct: also called Human Sema 3A antigen; human-derived Sema 3A protein
T1 sequence (looked up): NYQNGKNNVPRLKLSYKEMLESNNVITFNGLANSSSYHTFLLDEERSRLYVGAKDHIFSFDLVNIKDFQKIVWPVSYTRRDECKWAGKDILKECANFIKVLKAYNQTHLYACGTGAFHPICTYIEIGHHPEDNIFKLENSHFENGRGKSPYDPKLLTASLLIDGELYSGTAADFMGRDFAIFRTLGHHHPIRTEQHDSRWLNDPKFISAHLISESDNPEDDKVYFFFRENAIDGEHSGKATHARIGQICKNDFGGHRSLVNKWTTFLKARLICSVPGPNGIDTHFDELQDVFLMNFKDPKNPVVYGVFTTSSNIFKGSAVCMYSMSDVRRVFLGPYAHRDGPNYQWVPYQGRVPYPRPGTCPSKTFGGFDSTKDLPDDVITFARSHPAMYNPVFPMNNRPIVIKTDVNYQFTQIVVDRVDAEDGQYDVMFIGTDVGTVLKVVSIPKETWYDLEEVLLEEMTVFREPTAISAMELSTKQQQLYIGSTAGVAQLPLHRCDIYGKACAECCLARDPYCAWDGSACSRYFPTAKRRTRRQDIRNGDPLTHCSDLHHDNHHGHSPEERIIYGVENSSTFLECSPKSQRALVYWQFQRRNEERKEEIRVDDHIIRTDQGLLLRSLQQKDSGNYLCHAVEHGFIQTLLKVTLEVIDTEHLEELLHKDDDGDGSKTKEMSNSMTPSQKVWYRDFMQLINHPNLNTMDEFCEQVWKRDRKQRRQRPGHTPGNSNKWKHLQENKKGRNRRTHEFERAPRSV
Briefly: competitive ELISA on plate-coated human Sema 3A; competitor biotin-labelled avian-mouse chimeric antibody (clone No. 4-2) at 60 ng/mL. As for the experimental part:
The obtained clone No. 4-2-derived avian-mouse chimeric antibody in Example 1, the obtained humanized antibodies in Example 2 (Humanized-1 and Humanized-2) and avian-human chimeric antibody were subjected to competitive ELISA to evaluate affinity to the antigen. CL18M (+) avian-mouse chimeric antibody, which served as a negative control, was also measured for affinity to the antigen. Particular measurement conditions were as follows.
Firstly, 2.5 μg/mL of antigen (mouse and human Sema 3A protein) was dispensed into a 384 Well MaxiSorp Plate (Nunc) and reacted overnight at 4° C. in order to coat the plate with the antigen. The next day, the plate was washed three times with 50 μL/well of washing solution (PBS containing 0.05% Tween 20), to which was added 25 μL/well of blocking solution (PBS containing 1% bovine serum albumin) and the mixture was reacted for 30 minutes. Each of humanized antibodies (Humanized-1 and Humanized-2), avian-human chimeric antibody and avian-mouse chimeric antibody was subjected to serial doubling dilution, to which was mixed anti-Sema 3A avian-mouse chimeric antibody labeled with biotin to the final concentration of 60 ng/mL, and the mixture was reacted with the antigen solid phase plate which was washed three times with 50 μL/well of washing solution for one hour. The plate was washed five times with 50 μL/well of washing solution, to which was added 20 μL/well of diluent in which streptavidin labeled with horseradish peroxidase (HRP) (Thermo Fisher Scientific K.K.) was diluted 10000 times with PBS buffer and the mixture was reacted for 30 minutes. The plate was washed five times with 50 μL/well of washing solution, to which was added 20 μL/well of TMB+(Dako) and the mixture was chromogenically reacted for 20 minutes. Subsequently, to the each well was added 20 μL, of 1M sulfuric acid to quench the reaction. The absorbance was measured at 450 nm using Infinite M1000 (Tecan Trading AG).

B1: Anti-Sema 3A avian-mouse chimeric antibody (clone No. 4-2-derived) (antibody, mouse IgG2a)
heavy: AVTLDESGGGLQTPGGALSLVCKASGFTFSSYPMGWVRQAPGKGLEWVAGIDDDGDSDTRYAPAVKGRATISRDNGQSTVRLQLNNLRAEDTGTYYCAKHTGIGANSAGSIDAWGHGTEVIVSSAKTTAPSVYPLAPVCGDTTGSSVTLGCLVKGYFPEPVTLTWNSGSLSSGVHTFPAVLQSDLYTLSSSVTVTSSTWPSQSITCNVAHPASSTKVDKKIEPRGPTIKPCPPCKCPAPNLLGGPSVFIFPPKIKDVLMISLSPIVTCVVVDVSEDDPDVQISWFVNNVEVHTAQTQTHREDYNSTLRVVSALPIQHQDWMSGKEFKCKVNNKDLPAPIERTISKPKGSVRAPQVYVLPPPEEEMTKKQVTLTCMVTDFMPEDIYVEWTNNGKTELNYKNTEPVLDSDGSYFMYSKLRVEKKNWVERNSYSCSVVHEGLHNHHTTKSFSRTPGK
light: ALTQPASVSANLGGTVKITCSGGGSYTGSYYYGWYQQKSPGSALVTMIYYNNKRPSDIPSRFSGSLSGSTNTLTITGVRADDEAVYFCGSADNSGDAFGAGTTLTVLGQPKSSPSVTLFPPSSEELETNKATLVCTITDFYPGVVTVDWKVDGTPVTQGMETTQPSKQSNNKYMASSYLTLTARAWERHSSYSCQVTHEGHTVEKSLSRADCS
notes: Avian variable regions of clone No. 4-2 with mouse IgG2a heavy and mouse lambda light constant regions; also called anti-Sema 3A avian-mouse chimeric antibody (IgG)
As to B1, the IC50 (as a rule, the midpoint of a concentration-inhibition curve) was determined as 0.074 µg/mL.
